Target: E2F1/DP1 heterodimer (Homo sapiens, UniProt Q01094;Q14186 Q01094:64-301,Q14186:85-249)
Test: EMSA; binding inhibited by peptides SEQ 2, 4, 5 with IC50 50-100 uM; about 100-fold lower for MAP-branched SEQ 2; room temperature
Conditions: tags: His-E2F1 (pET28b); GST-DP1; label: 32P fill-in
Experimental: Purified E2F1 N1-His (64-301) and DP1 N2-GST (84-249) were incubated at 10 μg/ml in a buffer containing 10 mM HEPES, […], 1 mM EDTA, […], 33 mg/ml BSA and 0.1 μg of sonicated salmon sperm for 10 minutes on ice. ³²P-labelled probe was added and the reaction mixture was incubated at room temperature for 20 minutes. Probes were labelled by filling-in 5′ overhanging ends of 4-7 bases. Samples were run on 4% non denaturing polyacrylamide gel in 0.5% TBE at 4° C. Gels were exposed to X-ray films. Nuclear extract (3 μg) was incubated in 17 μl buffer containing 0.3 M NaCl, 0.4 M Tris pH 7.9, 100 mM EDTA, 0.4 M DTT, 13% glycerol, 1 μg of sonicated salmon sperm on ice. The samples were then incubated for 10 minutes at 30° C. and cooled on ice. ³²P-labelled probe was added, the reaction mixtures were incubated for another 10 minutes at 30° C. and then cooled on ice.
The inhibitory potential of the peptides on E2F function was analysed in band shift assays with recombinant E2F1 and DP1. […] The IC₅₀ concentrations for the 3 peptides were in the range of 50-100 μM. Inhibition to various extends was also observed using recombinant fragments of E2F2, E2F3, E2F4, E2F5, respectively. Approximately 100-fold lower IC50 values were found with a branched molecule consisting of 4 copies of SEQ ID NO:2 linked by MAP (multiple antigen peptide).

E2F1/DP1 heterodimer, sequence (Q01094 64-301, chain 1 of 2): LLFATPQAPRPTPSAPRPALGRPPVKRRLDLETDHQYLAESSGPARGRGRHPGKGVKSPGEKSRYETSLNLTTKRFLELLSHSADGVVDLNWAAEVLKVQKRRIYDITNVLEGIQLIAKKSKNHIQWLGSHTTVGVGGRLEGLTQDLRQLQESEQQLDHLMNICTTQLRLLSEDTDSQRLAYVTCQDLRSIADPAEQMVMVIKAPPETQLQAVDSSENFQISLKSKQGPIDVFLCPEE
E2F1/DP1 heterodimer, sequence (Q14186 85-249, chain 2 of 2): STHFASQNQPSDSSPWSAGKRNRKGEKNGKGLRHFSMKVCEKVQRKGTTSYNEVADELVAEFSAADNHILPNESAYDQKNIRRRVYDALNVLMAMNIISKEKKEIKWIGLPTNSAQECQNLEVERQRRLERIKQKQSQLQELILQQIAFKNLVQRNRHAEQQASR

B1: B-myb E2F probe (dsDNA)
DNA 1: CGACGCGCTTGGCGGGAGATAGAAAAGTGC
DNA 2: GCACTTTTCTATCTCCCGCCAAGCGCGTCG
- binding result: binds
